Test results taken from patent US20260167699A1 (Chugai, published 2026).

T1: FcγRIIa(R) extracellular domain, His-tagged (human, UniProt P12318 34-217)
T1 construct: extracellular domain; also called 2aR
T1 sequence: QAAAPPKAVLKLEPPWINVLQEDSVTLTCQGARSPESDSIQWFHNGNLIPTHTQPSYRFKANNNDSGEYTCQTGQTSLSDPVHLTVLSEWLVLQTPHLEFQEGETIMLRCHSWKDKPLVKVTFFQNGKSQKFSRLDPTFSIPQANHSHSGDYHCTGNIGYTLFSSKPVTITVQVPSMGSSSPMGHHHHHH

T2: FcγRIIa(H) extracellular domain, His-tagged (human, UniProt P12318 34-217)
T2 construct: extracellular domain; also called 2aH
T2 sequence: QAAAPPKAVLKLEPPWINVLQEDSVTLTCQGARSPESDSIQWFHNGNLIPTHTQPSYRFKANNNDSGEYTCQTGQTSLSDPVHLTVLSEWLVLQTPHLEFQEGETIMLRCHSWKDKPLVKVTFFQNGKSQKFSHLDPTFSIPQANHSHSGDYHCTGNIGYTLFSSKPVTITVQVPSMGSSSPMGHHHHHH

T3: FcγRIIb extracellular domain, His-tagged (human, UniProt P31994 43-217)
T3 construct: extracellular domain; also called 2b
T3 sequence: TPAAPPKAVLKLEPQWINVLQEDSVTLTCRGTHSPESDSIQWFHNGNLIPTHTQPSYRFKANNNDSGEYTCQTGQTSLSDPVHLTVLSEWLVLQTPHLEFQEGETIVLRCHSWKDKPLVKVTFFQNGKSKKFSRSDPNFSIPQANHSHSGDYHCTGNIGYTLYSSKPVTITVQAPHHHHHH


What was measured:
Assay in all cases: SPR, vs GpH7-A5/GpH7-B3/GpL16-k0 =100
[1] = molecular target: T4, FcγRIIIa extracellular domain, His-tagged (human, UniProt P08637 17-208)
T4 construct: extracellular domain; also called 3a

[2] = molecular target: T5, FcγRIa extracellular domain, His-tagged (human, UniProt P12314 16-292)
T5 construct: extracellular domain; also called 1a

[3] = molecular target: T1, FcγRIIa(R) extracellular domain, …
[4] = molecular target: T2, FcγRIIa(H) extracellular domain, …
[5] = molecular target: T3, FcγRIIb extracellular domain, His-tagged

T4 sequence (P08637 other isoform, or with tags, fused parts or gaps): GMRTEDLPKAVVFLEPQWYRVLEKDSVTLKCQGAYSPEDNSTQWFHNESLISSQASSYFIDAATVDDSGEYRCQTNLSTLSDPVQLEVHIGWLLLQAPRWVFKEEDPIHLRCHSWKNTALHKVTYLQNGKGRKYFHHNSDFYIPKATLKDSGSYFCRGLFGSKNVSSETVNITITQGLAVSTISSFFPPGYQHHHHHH
T5 sequence (P12314 other isoform, or with tags, fused parts or gaps): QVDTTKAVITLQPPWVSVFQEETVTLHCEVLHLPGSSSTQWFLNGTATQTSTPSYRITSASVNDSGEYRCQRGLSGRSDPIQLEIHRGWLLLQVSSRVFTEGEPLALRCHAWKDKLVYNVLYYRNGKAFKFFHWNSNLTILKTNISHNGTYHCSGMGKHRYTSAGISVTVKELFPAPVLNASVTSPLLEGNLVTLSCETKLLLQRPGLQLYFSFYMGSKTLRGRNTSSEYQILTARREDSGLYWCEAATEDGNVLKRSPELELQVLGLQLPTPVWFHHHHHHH

He/Con 3a [1]	He/Con 1a [2]	He/Con 2aR [3]	He/Con 2aH [4]	He/Con 2b [5]	Binder
90.3 % of control	108 % of control	100 % of control	93.5 % of control	90.3 % of control	GpH7-A5/GpH7-B3 variant H268_14T/GpL16-k0 (antibody, human IgG1, kappa) heavy 1: not shown heavy 2: not shown light: DIVMTQSPLSLPVTPGEPASISCQASESLVHSNRNTYLHWYLQKPGQSPQLLIYKVSNRFSGVPDRFSGSGSGTDFTLKISRVEAEDVGVYYCSQNTHVPPTFGQGTKVEIERTVAAPSVFIFPPSDEQLKSGTASVVCLLNNFYPREAKVQWKVDNALQSGNSQESVTEQDSKDSTYSLSSTLTLSKADYEKHKVYACEVTHQGLSSPVTKSFNRGEC
106 % of control	103 % of control	113 % of control	105 % of control	110 % of control	GpH7-A5/GpH7-B3 variant E269_09D/GpL16-k0 (antibody, human IgG1, kappa) heavy 1: not shown heavy 2: not shown light: DIVMTQSPLSLPVTPGEPASISCQASESLVHSNRNTYLHWYLQKPGQSPQLLIYKVSNRFSGVPDRFSGSGSGTDFTLKISRVEAEDVGVYYCSQNTHVPPTFGQGTKVEIERTVAAPSVFIFPPSDEQLKSGTASVVCLLNNFYPREAKVQWKVDNALQSGNSQESVTEQDSKDSTYSLSSTLTLSKADYEKHKVYACEVTHQGLSSPVTKSFNRGEC
61.6 % of control	101 % of control	70.3 % of control	72.3 % of control	54.1 % of control	GpH7-A5/GpH7-B3 variant E269_01G/GpL16-k0 (antibody, human IgG1, kappa) heavy 1: not shown heavy 2: not shown light: DIVMTQSPLSLPVTPGEPASISCQASESLVHSNRNTYLHWYLQKPGQSPQLLIYKVSNRFSGVPDRFSGSGSGTDFTLKISRVEAEDVGVYYCSQNTHVPPTFGQGTKVEIERTVAAPSVFIFPPSDEQLKSGTASVVCLLNNFYPREAKVQWKVDNALQSGNSQESVTEQDSKDSTYSLSSTLTLSKADYEKHKVYACEVTHQGLSSPVTKSFNRGEC
112 % of control	104 % of control	85.7 % of control	111 % of control	72.5 % of control	GpH7-A5/GpH7-B3 variant D270_10E/GpL16-k0 (antibody, human IgG1, kappa) heavy 1: not shown heavy 2: not shown light: DIVMTQSPLSLPVTPGEPASISCQASESLVHSNRNTYLHWYLQKPGQSPQLLIYKVSNRFSGVPDRFSGSGSGTDFTLKISRVEAEDVGVYYCSQNTHVPPTFGQGTKVEIERTVAAPSVFIFPPSDEQLKSGTASVVCLLNNFYPREAKVQWKVDNALQSGNSQESVTEQDSKDSTYSLSSTLTLSKADYEKHKVYACEVTHQGLSSPVTKSFNRGEC
65.1 % of control	93.2 % of control	62.8 % of control	81.8 % of control	50.8 % of control	GpH7-A5/GpH7-B3 variant D270_08L/GpL16-k0 (antibody, human IgG1, kappa) heavy 1: not shown heavy 2: not shown light: DIVMTQSPLSLPVTPGEPASISCQASESLVHSNRNTYLHWYLQKPGQSPQLLIYKVSNRFSGVPDRFSGSGSGTDFTLKISRVEAEDVGVYYCSQNTHVPPTFGQGTKVEIERTVAAPSVFIFPPSDEQLKSGTASVVCLLNNFYPREAKVQWKVDNALQSGNSQESVTEQDSKDSTYSLSSTLTLSKADYEKHKVYACEVTHQGLSSPVTKSFNRGEC
55.4 % of control	89.5 % of control	72.2 % of control	81.3 % of control	54.8 % of control	GpH7-A5/GpH7-B3 variant D270_14T/GpL16-k0 (antibody, human IgG1, kappa) heavy 1: not shown heavy 2: not shown light: DIVMTQSPLSLPVTPGEPASISCQASESLVHSNRNTYLHWYLQKPGQSPQLLIYKVSNRFSGVPDRFSGSGSGTDFTLKISRVEAEDVGVYYCSQNTHVPPTFGQGTKVEIERTVAAPSVFIFPPSDEQLKSGTASVVCLLNNFYPREAKVQWKVDNALQSGNSQESVTEQDSKDSTYSLSSTLTLSKADYEKHKVYACEVTHQGLSSPVTKSFNRGEC
68 % of control	101 % of control	70.2 % of control	78.7 % of control	52.4 % of control	GpH7-A5/GpH7-B3 variant E269_02A/GpL16-k0 (antibody, human IgG1, kappa) heavy 1: not shown heavy 2: not shown light: DIVMTQSPLSLPVTPGEPASISCQASESLVHSNRNTYLHWYLQKPGQSPQLLIYKVSNRFSGVPDRFSGSGSGTDFTLKISRVEAEDVGVYYCSQNTHVPPTFGQGTKVEIERTVAAPSVFIFPPSDEQLKSGTASVVCLLNNFYPREAKVQWKVDNALQSGNSQESVTEQDSKDSTYSLSSTLTLSKADYEKHKVYACEVTHQGLSSPVTKSFNRGEC
